Data reported in FireProtDB (doi:10.1016/j.jmb.2005.07.042).
Values joined by “and” are separate entries in the source; they are usually repeats but may differ in a detail not shown here. Equal values may be shown once.

Conditions: Escherichia coli (strain K12), pH 7.4, Thermal, DSC, Pipes 50 mM, reversible: yes (80%), whole UniProt chain shown

B1: Guanylate kinase wild type, P60546 (protein)
chain: MAQGTLYIVSAPSGAGKSSLIQALLKTQPLYDTQVSVSHTTRQPRPGEVHGEHYFFVNHDEFKEMISRDAFLEHAEVFGNYYGTSREAIEQVLATGVDVFLDIDWQGAQQIRQKMPHARSIFILPPSKIELDRRLRGRGQDSEEVIAKRMAQAVAEMSHYAEYDYLIVNDDFDTALTDLKTIIRAERLRMSRQKQRHDALISKLLAD
Q: With B1 as the protein, how does the “unfolding enthalpy (calorimetric)” value (NaCl 250 mM, transition: 3) read?
A: The value was 36.8 kcal/mol and 70.3 kcal/mol.

Q: And the “unfolding enthalpy (calorimetric)” value (transition: 3)?
A: Its value is 38.9 kcal/mol and 67.5 kcal/mol.

Q: What about the “unfolding enthalpy (calorimetric)” value (transition: 4) of the same protein?
A: The value was 27.3 kcal/mol and 47.8 kcal/mol and 30.8 kcal/mol.
